Tests used:
[1] = biological target: human CADM1 (cell surface, on CADM1-expressing human tumour cells and tissues) (human) (UniProt Q9BY67); assay: flow cytometry histogram on SKMEL28 cells, isotype control
[2] = biological target: human CADM1 (cell surface, on CADM1-expressing human tumour cells and tissues) (human) (UniProt Q9BY67); assay: flow cytometry histogram on 786-0 cells, isotype control
[3] = biological target: human CADM1 (cell surface, on CADM1-expressing human tumour cells and tissues) (human) (UniProt Q9BY67); assay: cell-based or functional assay
[4] = biological target: human CADM1 (cell surface, on CADM1-expressing human tumour cells and tissues) (human) (UniProt Q9BY67); assay: flow cytometry on NCI-H69 cells expressing human CADM1
[5] = biological target: human CADM1 (cell surface, on CADM1-expressing human tumour cells and tissues) (human) (UniProt Q9BY67); assay: flow cytometry (FGMI) titration on SkMel28 melanoma cells; table under the plot
[6] = biological target: human CADM1 (cell surface, on CADM1-expressing human tumour cells and tissues) (human) (UniProt Q9BY67); assay: flow cytometry histogram on 786-0 cells
[7] = biological target: human CADM1 (cell surface, on CADM1-expressing human tumour cells and tissues) (human) (UniProt Q9BY67); assay: flow cytometry histogram on SKMEL28 cells
[8] = biological target: human CADM1 (cell surface, on CADM1-expressing human tumour cells and tissues) (human) (UniProt Q9BY67); assay: flow cytometry (FACS Geomean) titration on SKOV3 ovarian cancer cells; the table under the plot prints no unit, nM is the unit of the x axis 'Ab conc in nM'
[9] = biological target: human CADM1 (cell surface, on CADM1-expressing human tumour cells and tissues) (human) (UniProt Q9BY67); assay: flow cytometry (FACS Geomean) titration on A549 non-small cell lung cancer cells; the table under the plot prints no unit, nM is the unit of the x axis 'Ab conc in nM'
[10] = biological target: human CADM1 (cell surface, on CADM1-expressing human tumour cells and tissues) (human) (UniProt Q9BY67); assay: flow cytometry (FACS Geomean) titration on A549 non-small cell lung cancer cells
[11] = biological target: human CADM1 (cell surface, on CADM1-expressing human tumour cells and tissues) (human) (UniProt Q9BY67); assay: flow cytometry (FGMI) titration on 786-O renal cell carcinoma cells; table under the plot

Chain of UniProt Q9BY67 (Q9BY67 45-442): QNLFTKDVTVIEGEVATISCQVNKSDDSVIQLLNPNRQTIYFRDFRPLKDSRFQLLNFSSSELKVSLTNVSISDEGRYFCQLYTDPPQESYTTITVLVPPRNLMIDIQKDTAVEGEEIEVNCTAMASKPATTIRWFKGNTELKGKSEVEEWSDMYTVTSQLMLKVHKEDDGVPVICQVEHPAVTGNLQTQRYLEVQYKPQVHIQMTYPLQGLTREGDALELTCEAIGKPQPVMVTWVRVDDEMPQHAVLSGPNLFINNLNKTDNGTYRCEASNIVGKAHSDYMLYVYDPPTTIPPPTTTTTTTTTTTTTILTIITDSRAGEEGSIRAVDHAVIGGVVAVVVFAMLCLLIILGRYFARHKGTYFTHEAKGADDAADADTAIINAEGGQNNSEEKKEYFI

Molecule	number in the histogram legend box (name not given; axis FL2-H) [1]	number in the histogram legend box (name not given; axis FL2-H) [2]	% Specific Lysis: DMS79 (ADCC) [3]	% Specific Lysis: NCI-H69 (ADCC) [3]	EC50 [4]	EC50 [5]	number in the histogram legend box (name not given; axis FL2-H) [6]	number in the histogram legend box (name not given; axis FL2-H) [7]	EC50 [8]	EC50 [9]	EC50 (read off the curve) [10]	EC50 [11]
Isotype Control (antibody)	10.5	8.39	2.96%	3.3%	–	–	–	–	–	–	–	–
PTA021_A1 human monoclonal antibody (antibody, V domains shown) VH: QITLKESGPTLVKPTQTLTLTCTFSGFSLNTSGVGVGWIRQPPGKALEWLALIYWDDDKRYSPSLKSRLTITKDTSKNQVVLTMTNMDPVDTATYYCAHRRVEWVALAGNWFDPWGQGTLVTVSS VL: DIQMTQSPSSLSASVGDRVTITCRASQGISSWLAWYQQKPEKAPKSLIYGASSLQSGVPSRFSGSGSGTDFTLTISNLQPEDFATYYCQQYNSYPLTFGGGTKVEIK	–	–	37.8%	24.6%	0.588 nM	–	–	–	–	–	–	–
PTA021_A3 human monoclonal antibody (antibody, V domains shown) VH: QITLKESGPTLVKPTQTLTLTCTFSGFSLSTSGVGVGWIRQPPGKALEWLALIYWDDDKRYSPSLKSRLTITKDTSKNQVVLTMTNMDPVDTATYYCAHRRVEWVTLAGNWFDPWGQGTLVTVSS VL: DIQMTQSPSSLSASVGDRVTITCRASQGISSWLAWYQQKPEKAPKSLIYAASSLQSGVPSRFSGSGSGTDFTLTISNLQPEDFATYYCQQYNSYPLTFGGGTKVEIK	–	–	61%	29.8%	0.674 nM	4.42 nM	42.6	25.9	12.6 nM	3.65 nM	4 nM	3.25 nM
PTA021_A2 human monoclonal antibody (antibody, V domains shown) VH: QITLKESGPTLVKPTQTLTLTCTFSGFSLSTSGVGVGWIRQPPGKALEWLALIYWDDDKRYSPSLKSRLTITKDTSKNQVVLTMTNMDPVDTAIYYCAHRRVEWFALAGNWFDPWGQGSLVTVSS VL: DIQMTQSPSSLSASVGDRVTITCRASQGISSWLAWYQQKPEKAPKSLIYAASSLQSGVPSRFSGSGSGTDFTLTISSLQPEDFATYYCQQYNSYPLTFGGGTKVEIK	–	–	34.7%	15.9%	0.667 nM	–	–	–	–	–	–	–

Source: US20120093826A1
